Reference: patent US20200040103A1 (Genentech, published 2020)
Where a chain is given by its changes, count along the chain named.

T1: Recombinant human KLK5 residues I67-S293 (SEQ ID NO:328) (human, UniProt Q9Y337 67-293, lysine residues methylated in the 10C5 and 9H5 complexes that gave crystals)
T1 construct: Expressed in Sf9 cells as ubiquitin fusion; ubiquitin removed with Enterokinase; also called Human KLK5 Crystal Structure Experiments
T1 sequence: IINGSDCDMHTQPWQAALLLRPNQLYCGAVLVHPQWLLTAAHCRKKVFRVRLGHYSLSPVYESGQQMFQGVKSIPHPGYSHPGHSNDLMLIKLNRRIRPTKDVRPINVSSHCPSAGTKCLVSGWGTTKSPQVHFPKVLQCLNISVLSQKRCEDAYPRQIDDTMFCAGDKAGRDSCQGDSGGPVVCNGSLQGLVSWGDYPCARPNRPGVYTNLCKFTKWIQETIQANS

B1: 10C5 Fab (Fab, V domains shown)
VH: EVQLVESGGGLVQPGGSLRLSCAASGFSLSSYGVTWVRQAPGKGLEWIGYITSNYGVSYYASWAKSRSTISRDTSKNTVYLQMGSLRAEDMAVYYCARENPDYGYAYDAWGQGTTVTVSS
VL: AIRMTQSPSSFSASTGDRVTITCQASESISNELSWYQQKPGKAPKLLIYYASTLASGVPSRFSGSGSGTDFTLTISSLQPEDFATYYCAQGFGSSGVENVFGGGTKVEIKR
notes: Fab used for crystallization with human KLK5; lysines of the complex were methylated; also called Fab 10C5 Humanized
B2: 9H5 Fab (Fab, V domains shown)
VH: EVQLVESGGGLIQPGGSLRLSCAASGFSLSSYGVSWVRQAPGKGLEYVGFIGSGGFAYYASWAKSRFTISRDNSKNTLYLQMNSLRAEDTAVYYCARDDVGGGKSLDIWGQGTLVTVSS
VL: DIQMTQSPSSLSASVGDRVTITCQASQSISSYLSWYQQKPGKAPKLLIYSASTLASGVPSRFSGSGSGTDFTLTISSLQPEDFATYYCHQDYTSSNVDNTFGGGTKVEIKR
notes: Fab used for crystallization with human KLK5; lysines of the complex were methylated; also called Fab 9H5 Humanized
B3: 3-3F5 Fab (Fab, V domains shown)
VH: EVQLLESGGGLVQPGGSLRLSCAVSGFSLNDYGVSWVRQAPGKGLEWVGAIGSSGVAWYANFAKGRFTISRDNSKNTLYLQMNSLRAEDTAVYYCARDRDYGYRADDATSGMDLWGRGTLVTVSS
VL: AIRMTQSPSSFSASTGDRVTITCQASESIGNALAWYQQKPGKAPKLLIYDASDLASGVPSRFSGSGSGTDFTLTISSLQPEDFATYYCQQGDSHNNVDNIFGGGTKVEIKR
notes: Fab used for crystallization with human KLK5; also called 3F5.5 Fab; Fab 3-3F5 Humanized
B4: 14C8 (antibody, V domains shown)
VH: EVQLVESGGGLVQPGRSLKLSCTASGFTFSDYNMAWVRQAPKGGLEWVTTISYDAGRTYYRDSVKGRFTISRDNAKRTLSLQMDSLRSEDTATYYCATGIFNYGTDYFDYWGQGVMVTVSS
VL: DIQMTQSPASLSASLGETVTIQCRASEDIYSGLAWYQQKPGKSPQLLIYGATTLHDGVPSRFSGSGSGTQYSLKISSMHSEDEGIYFCHQGLSFPYTFGAGTKLELK
B5: 8E11 (antibody, V domains shown)
VH: QEQLEESGGDLVKPEGSLTLTCTASGFSFSSSYWICWVRQAPGKGLEWIACVYGLDVNIYYASWTKGRFTISKTSSTTVTLQMTSLTAADTATYFCARGGGSADFGFDLWGPGTLVTVSS
VL: DVVMTQTASPVSAAVGGTVTIKCQASENIYSLLAWYQQKPGQPPKVLIYDASDLASGVPSRFKGSGSGTQFTLTISDLECADAATYYCQATAYGSSGNAFGGGTEVVVK
B6: 8G10 (antibody, V domains shown)
VH: QSLEESGGDLVKPEGSLTLTCTASGFSFSTSYWICWVRQAPGKGLEWIACVYGLDVNIYYASWTEGRFTISKTSSTTVTLQVTSLTAADTATYFCARGGGSADFGFDLWGPGTLVTVSS
VL: B5 VL with A8P, S9A, P10S, A13E, A14P
B7: 14E12 (antibody, V domains shown)
VH: EVQLVESGGGLVRPGRSLRLSCAASGFTFSDYYMAWVRQAPTKGLEWVASISYDGDTTYYRDSVKGRFTISRDNARSSLYLQMDSLRSDDTANYFCTTDGTIPAGSWFAYWGQGTLVTVSS
VL: DIQMTQSPASLSASLGETVTIECLASKNIYRNLAWYQQKPGKSPQFLISDASRLQDGVPSRFTGSDSGSQYSLKINSLQSEDVATYFCQQYHDYPYTFGAGTKLELK

target: T1, Recombinant human KLK5 residues …; experiment: crystal structure of the Fab/KLK5 complex
Description: Recombinant human KLK5 residues I67-S293 (SEQ ID NO:328) was expressed in a Baculovirus expression system as a C-terminal fusion of ubiquitin with an Enterokinase cleavage site engineered between ubiquitin and KLK5. Sf9 cells were coexpressed with EndoH with 1 mg/mL of Kifunensine. Protein was purified on a HiTrap™ Heparin column. The column was washed with 25 mM TRIS pH 7.5 for 5 CV (column volumes), and then eluted with 0-750 mM NaCl over a gradient of 20 CV. Resultant protein pool was then further purified over 5200 by SEC in 25 mM Tris pH 7.5, 300 mM NaCl. The Ubiquitin was then cleaved using Enterokinase, and sample further purified by SEC again. […] Fab fragments including heavy and light chains were expressed and purified as described. See Carter et al., Biotechnology 10(2), 163-167 (1992). KLK5 was then mixed with each of the Fabs separately, 10C5, 9H5, and 3-3F5, and the complex was purified by SEC in 25 mM HEPES pH 7.2, 100 mM NaCl. […] Crystal for the 10C5 and 9H5 complexes were only obtained when the lysine residues in the protein complexes were methylated. See Walter et al., Structure, 14(11), 1617-1622 (2006).

| Binder | buried surface area [Å^2] |
| --- | --- |
| B1 | ~860 |
| B2 | 805 |
| B3 | 956 |

target: human KLK1 (human, UniProt P06870 25-262, limits assumed); experiment: array SPR imaging, antibody immobilized
Sequence (P06870 25-262 limits assumed): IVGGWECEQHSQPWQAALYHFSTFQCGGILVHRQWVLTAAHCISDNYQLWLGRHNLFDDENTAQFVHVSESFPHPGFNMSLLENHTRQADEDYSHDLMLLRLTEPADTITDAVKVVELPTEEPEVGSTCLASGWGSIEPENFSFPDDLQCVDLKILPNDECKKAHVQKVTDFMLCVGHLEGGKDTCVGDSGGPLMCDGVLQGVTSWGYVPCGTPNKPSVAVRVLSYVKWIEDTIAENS
Description: (§1) An array-based SPR imaging system (Carterra™, USA) was used to epitope bin a panel of 288 monoclonal antibodies. Purified antibodies were diluted at 10 μg/ml in 10 mM sodium acetate buffer pH 4.5. Using amine coupling, antibodies were directly immobilized onto a SPR sensorprism CMD 200M chip (XanTec Bioanalytics GmbH, Germany) using a Continuous Flow Microspotter (Carterra™, USA) to create an array of 288 antibodies. For analysis, the IBIS MX96 SPRi (Carterra™, USA) was used to evaluate analytes binding to the immobilized ligands. For kinetic analyses, human, cyno and murine KLK5 were injected for 3 minutes from 0 to 300 nM at 3-fold dilution followed by a dissociation period of 10 minutes. Human KLK1, KLK4, and KLK7 were injected at a single concentration of 500 nM to ensure the specificities of the antibodies. For epitope binning against SPINK9-Fc-SRE, human KLK5 was first injected for 4 minute at 100 nM and was followed by a second 4 minute injection of SPINK9-Fc-SRE at 10 μg/ml. The surface was regenerated with 10 mM glycine pH1.5 between cycles. The experiment was performed at 25° C. in a running buffer of HBS-T buffer (0.01M HEPES pH 7.4, 0.15M NaCl, 0.05% surfactant P20). The kinetic data was processed using Scrubber 2.0 (BioLogic™ Software) and the epitope binning data was processed using Wasatch binning software tool (Carterra™, USA).

| Binder | binding result |
| --- | --- |
| B4 | no binding (tested: 500 nM) |
| B5 | no binding (tested: 500 nM) |
| B6 | no binding (tested: 500 nM) |
| B7 | no binding (tested: 500 nM) |

target: human KLK4 (human, UniProt Q9Y5K2 31-254, limits assumed); experiment: array SPR imaging, antibody immobilized
Sequence (Q9Y5K2 31-254 limits assumed): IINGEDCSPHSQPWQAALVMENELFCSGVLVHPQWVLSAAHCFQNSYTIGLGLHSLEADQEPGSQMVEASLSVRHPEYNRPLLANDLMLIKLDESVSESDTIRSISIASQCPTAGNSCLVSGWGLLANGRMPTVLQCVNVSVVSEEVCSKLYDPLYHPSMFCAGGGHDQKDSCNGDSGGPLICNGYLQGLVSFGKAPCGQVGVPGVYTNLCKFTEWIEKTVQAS
Description: as §1

| Binder | binding result |
| --- | --- |
| B4 | no binding (tested: 500 nM) |
| B5 | no binding (tested: 500 nM) |
| B6 | no binding (tested: 500 nM) |
| B7 | no binding (tested: 500 nM) |

target: human KLK7 (human, UniProt P49862 30-253, limits assumed); experiment: array SPR imaging, antibody immobilized
Sequence (P49862 30-253 limits assumed): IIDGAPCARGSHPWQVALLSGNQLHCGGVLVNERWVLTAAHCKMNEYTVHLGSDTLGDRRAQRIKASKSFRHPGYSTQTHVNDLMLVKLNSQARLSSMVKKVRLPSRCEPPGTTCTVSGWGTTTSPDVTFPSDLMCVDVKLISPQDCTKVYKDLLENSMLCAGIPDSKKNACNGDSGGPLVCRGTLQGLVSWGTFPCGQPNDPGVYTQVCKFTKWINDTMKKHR
Description: as §1

| Binder | binding result |
| --- | --- |
| B4 | no binding (tested: 500 nM) |
| B5 | no binding (tested: 500 nM) |
| B6 | no binding (tested: 500 nM) |
| B7 | no binding (tested: 500 nM) |
